Measurements reported in the supplement of paper PMC9112550, “Optimization of the antimicrobial peptide Bac7 by deep mutational scanning” (BMC Biology, 2022).
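Further: peptides expressed intracellularly from a pBAD plasmid library in pooled LB shake-flask culture, induced with 0.3% L-arabinose, DNA abundance read by NGS, three biological replicates, DESeq2 with apeglm shrinkage.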

These sequences were tested on Escherichia coli TOP10 (assay: shrunken log2 fold change of peptide-encoding DNA abundance (4.5 h post-induction vs induction); higher = less antimicrobial activity (less host growth inhibition)). Details: time post-induction: 4.5 h; library: site-saturation at positions 5, 18, 19, 20.
With RRIRSRPPRLPRPRPRPDWCPRP the “shrunken log2 fold change” value was 0.224. For RRIRSRPPRLPRPRPRPDYAPRP, the “shrunken log2 fold change” value was -0.0222. For RRIRSRPPRLPRPRPRPDYDPRP, the “shrunken log2 fold change” value was -0.0947. In the case of RRIRSRPPRLPRPRPRPEAVPRP, the “shrunken log2 fold change” value is reported as -0.0338. RRIRSRPPRLPRPRPRPEAWPRP was tested, and the “shrunken log2 fold change” value was 0.0495. With RRIRSRPPRLPRPRPRPEAYPRP the “shrunken log2 fold change” value was -0.141. In the case of RRIRSRPPRLPRPRPRPECSPRP, the “shrunken log2 fold change” value is reported as 0.201. With RRIRSRPPRLPRPRPRPEDIPRP the “shrunken log2 fold change” value was -0.0081. In the case of RRIRSRPPRLPRPRPRPEDMPRP, the “shrunken log2 fold change” value is reported as -0.088. RRIRSRPPRLPRPRPRPEEGPRP was tested, and the “shrunken log2 fold change” value was 0.0515. In the case of RRIRSRPPRLPRPRPRPEHFPRP, the “shrunken log2 fold change” value is reported as -0.246. In the case of RRIRSRPPRLPRPRPRPEHRPRP, the “shrunken log2 fold change” value is reported as -0.00155. In the case of RRIRSRPPRLPRPRPRPEIIPRP, the “shrunken log2 fold change” value is reported as -0.0448. In the case of RRIRSRPPRLPRPRPRPELLPRP, the “shrunken log2 fold change” value is reported as -0.111. With RRIRSRPPRLPRPRPRPEMAPRP the “shrunken log2 fold change” value was 1.22. In the case of RRIRSRPPRLPRPRPRPEMKPRP, the “shrunken log2 fold change” value is reported as 0.114. In the case of RRIRSRPPRLPRPRPRPERQPRP, the “shrunken log2 fold change” value is reported as 0.1. With RRIRSRPPRLPRPRPRPERWPRP the “shrunken log2 fold change” value was 1.14. For RRIRSRPPRLPRPRPRPESPPRP, the “shrunken log2 fold change” value was 0.32. In the case of RRIRSRPPRLPRPRPRPEVEPRP, the “shrunken log2 fold change” value is reported as 0.112. With RRIRSRPPRLPRPRPRPEVLPRP the “shrunken log2 fold change” value was -0.0111. RRIRSRPPRLPRPRPRPEVVPRP was tested, and the “shrunken log2 fold change” value was 0.471. In the case of RRIRSRPPRLPRPRPRPEWGPRP, the “shrunken log2 fold change” value is reported as 0.0115. RRIRSRPPRLPRPRPRPEWIPRP was tested, and the “shrunken log2 fold change” value was 0.021. For RRIRSRPPRLPRPRPRPEWTPRP, the “shrunken log2 fold change” value was 0.329. In the case of RRIRSRPPRLPRPRPRPEYCPRP, the “shrunken log2 fold change” value is reported as 0.184. With RRIRSRPPRLPRPRPRPEYRPRP the “shrunken log2 fold change” value was 0.2. RRIRSRPPRLPRPRPRPFCPPRP was tested, and the “shrunken log2 fold change” value was -0.31. For RRIRSRPPRLPRPRPRPFEIPRP, the “shrunken log2 fold change” value was 0.0385. With RRIRSRPPRLPRPRPRPFEKPRP the “shrunken log2 fold change” value was 0.00827. In the case of RRIRSRPPRLPRPRPRPFFVPRP, the “shrunken log2 fold change” value is reported as -0.184. For RRIRSRPPRLPRPRPRPFGKPRP, the “shrunken log2 fold change” value was -0.0207. In the case of RRIRSRPPRLPRPRPRPFGTPRP, the “shrunken log2 fold change” value is reported as 0.0399. With RRIRSRPPRLPRPRPRPFHSPRP the “shrunken log2 fold change” value was -0.0807. RRIRSRPPRLPRPRPRPFKLPRP was tested, and the “shrunken log2 fold change” value was -0.71. In the case of RRIRSRPPRLPRPRPRPFLDPRP, the “shrunken log2 fold change” value is reported as -0.149. With RRIRSRPPRLPRPRPRPFLEPRP the “shrunken log2 fold change” value was -0.248. With RRIRSRPPRLPRPRPRPFMFPRP the “shrunken log2 fold change” value was -0.156. In the case of RRIRSRPPRLPRPRPRPFMGPRP, the “shrunken log2 fold change” value is reported as -0.216. RRIRSRPPRLPRPRPRPFMMPRP was tested, and the “shrunken log2 fold change” value was -0.643. For RRIRSRPPRLPRPRPRPFNDPRP, the “shrunken log2 fold change” value was -0.223. RRIRSRPPRLPRPRPRPFNLPRP was tested, and the “shrunken log2 fold change” value was -0.218. RRIRSRPPRLPRPRPRPFNWPRP was tested, and the “shrunken log2 fold change” value was 0.0339. With RRIRSRPPRLPRPRPRPFPYPRP the “shrunken log2 fold change” value was -0.115. RRIRSRPPRLPRPRPRPFRQPRP was tested, and the “shrunken log2 fold change” value was 3.58. RRIRSRPPRLPRPRPRPFSNPRP was tested, and the “shrunken log2 fold change” value was -0.218. With RRIRSRPPRLPRPRPRPFSPPRP the “shrunken log2 fold change” value was -0.195. In the case of RRIRSRPPRLPRPRPRPFTIPRP, the “shrunken log2 fold change” value is reported as -0.0987. RRIRSRPPRLPRPRPRPFVDPRP was tested, and the “shrunken log2 fold change” value was -0.228. With RRIRSRPPRLPRPRPRPFVNPRP the “shrunken log2 fold change” value was -0.99. RRIRSRPPRLPRPRPRPFWHPRP was tested, and the “shrunken log2 fold change” value was -0.0146. For RRIRSRPPRLPRPRPRPGCEPRP, the “shrunken log2 fold change” value was 0.145. In the case of RRIRSRPPRLPRPRPRPGDDPRP, the “shrunken log2 fold change” value is reported as 0.0869. For RRIRSRPPRLPRPRPRPGDFPRP, the “shrunken log2 fold change” value was 0.0535. RRIRSRPPRLPRPRPRPGDTPRP was tested, and the “shrunken log2 fold change” value was 1.51. With RRIRSRPPRLPRPRPRPGECPRP the “shrunken log2 fold change” value was -0.181. In the case of RRIRSRPPRLPRPRPRPGEQPRP, the “shrunken log2 fold change” value is reported as 0.00836. With RRIRSRPPRLPRPRPRPGFIPRP the “shrunken log2 fold change” value was -0.205. RRIRSRPPRLPRPRPRPGFPPRP was tested, and the “shrunken log2 fold change” value was -0.00277. For RRIRSRPPRLPRPRPRPGGSPRP, the “shrunken log2 fold change” value was 0.0707. In the case of RRIRSRPPRLPRPRPRPGHCPRP, the “shrunken log2 fold change” value is reported as 0.0298. RRIRSRPPRLPRPRPRPGHFPRP was tested, and the “shrunken log2 fold change” value was -0.0564. RRIRSRPPRLPRPRPRPGHIPRP was tested, and the “shrunken log2 fold change” value was -0.109. With RRIRSRPPRLPRPRPRPGICPRP the “shrunken log2 fold change” value was 0.137. In the case of RRIRSRPPRLPRPRPRPGIYPRP, the “shrunken log2 fold change” value is reported as -0.135. With RRIRSRPPRLPRPRPRPGKHPRP the “shrunken log2 fold change” value was 0.0205. RRIRSRPPRLPRPRPRPGLCPRP was tested, and the “shrunken log2 fold change” value was 0.238. RRIRSRPPRLPRPRPRPGLLPRP was tested, and the “shrunken log2 fold change” value was -0.0369. With RRIRSRPPRLPRPRPRPGNKPRP the “shrunken log2 fold change” value was -0.194. RRIRSRPPRLPRPRPRPGPDPRP was tested, and the “shrunken log2 fold change” value was 0.332. For RRIRSRPPRLPRPRPRPGQEPRP, the “shrunken log2 fold change” value was -0.0151. For RRIRSRPPRLPRPRPRPGRHPRP, the “shrunken log2 fold change” value was 0.0088. With RRIRSRPPRLPRPRPRPGRTPRP the “shrunken log2 fold change” value was 0.0636. With RRIRSRPPRLPRPRPRPGTHPRP the “shrunken log2 fold change” value was -0.146. For RRIRSRPPRLPRPRPRPGTRPRP, the “shrunken log2 fold change” value was -0.0748. With RRIRSRPPRLPRPRPRPGYVPRP the “shrunken log2 fold change” value was -0.809. For RRIRSRPPRLPRPRPRPGYWPRP, the “shrunken log2 fold change” value was -0.0968. With RRIRSRPPRLPRPRPRPHCYPRP the “shrunken log2 fold change” value was -0.302. With RRIRSRPPRLPRPRPRPHFRPRP the “shrunken log2 fold change” value was -0.197. For RRIRSRPPRLPRPRPRPHGNPRP, the “shrunken log2 fold change” value was -0.00459. RRIRSRPPRLPRPRPRPHGYPRP was tested, and the “shrunken log2 fold change” value was -0.244. RRIRSRPPRLPRPRPRPHHRPRP was tested, and the “shrunken log2 fold change” value was -0.43. With RRIRSRPPRLPRPRPRPHIIPRP the “shrunken log2 fold change” value was -0.443. With RRIRSRPPRLPRPRPRPHMGPRP the “shrunken log2 fold change” value was -0.0366. RRIRSRPPRLPRPRPRPHNLPRP was tested, and the “shrunken log2 fold change” value was -0.33. With RRIRSRPPRLPRPRPRPHPFPRP the “shrunken log2 fold change” value was -0.25. With RRIRSRPPRLPRPRPRPHPMPRP the “shrunken log2 fold change” value was -0.236. For RRIRSRPPRLPRPRPRPHTPPRP, the “shrunken log2 fold change” value was -0.318. In the case of RRIRSRPPRLPRPRPRPHTSPRP, the “shrunken log2 fold change” value is reported as -0.445. In the case of RRIRSRPPRLPRPRPRPHVVPRP, the “shrunken log2 fold change” value is reported as 0.0681. For RRIRSRPPRLPRPRPRPHWGPRP, the “shrunken log2 fold change” value was -0.107. In the case of RRIRSRPPRLPRPRPRPHYEPRP, the “shrunken log2 fold change” value is reported as -0.573. RRIRSRPPRLPRPRPRPIAAPRP was tested, and the “shrunken log2 fold change” value was 0.333. In the case of RRIRSRPPRLPRPRPRPIAKPRP, the “shrunken log2 fold change” value is reported as -0.0775. With RRIRSRPPRLPRPRPRPICDPRP the “shrunken log2 fold change” value was 0.228. RRIRSRPPRLPRPRPRPICHPRP was tested, and the “shrunken log2 fold change” value was -0.179. For RRIRSRPPRLPRPRPRPICIPRP, the “shrunken log2 fold change” value was -0.494. RRIRSRPPRLPRPRPRPICVPRP was tested, and the “shrunken log2 fold change” value was -0.111. RRIRSRPPRLPRPRPRPICWPRP was tested, and the “shrunken log2 fold change” value was 0.0446. RRIRSRPPRLPRPRPRPIDMPRP was tested, and the “shrunken log2 fold change” value was -0.00448. With RRIRSRPPRLPRPRPRPIEHPRP the “shrunken log2 fold change” value was -0.0344. For RRIRSRPPRLPRPRPRPIESPRP, the “shrunken log2 fold change” value was -0.385. In the case of RRIRSRPPRLPRPRPRPIGWPRP, the “shrunken log2 fold change” value is reported as 0.142. With RRIRSRPPRLPRPRPRPIHIPRP the “shrunken log2 fold change” value was -0.157. With RRIRSRPPRLPRPRPRPIKEPRP the “shrunken log2 fold change” value was -0.0466. For RRIRSRPPRLPRPRPRPIKHPRP, the “shrunken log2 fold change” value was -0.0703. RRIRSRPPRLPRPRPRPIKQPRP was tested, and the “shrunken log2 fold change” value was -0.13. In the case of RRIRSRPPRLPRPRPRPIKRPRP, the “shrunken log2 fold change” value is reported as 0.0449. In the case of RRIRSRPPRLPRPRPRPIMHPRP, the “shrunken log2 fold change” value is reported as -0.455.
